Measurements from publication PMC3673994 (PLoS ONE, 2013).

Biological target: T1, human mtRNase P (TRMT10C-SDR5C1 and PRORP) (Homo sapiens, UniProt Q7L0Y3+Q99714)
T1 construct: made in house; host or cells: E. coli
T1 sequence (Q99714 1-261): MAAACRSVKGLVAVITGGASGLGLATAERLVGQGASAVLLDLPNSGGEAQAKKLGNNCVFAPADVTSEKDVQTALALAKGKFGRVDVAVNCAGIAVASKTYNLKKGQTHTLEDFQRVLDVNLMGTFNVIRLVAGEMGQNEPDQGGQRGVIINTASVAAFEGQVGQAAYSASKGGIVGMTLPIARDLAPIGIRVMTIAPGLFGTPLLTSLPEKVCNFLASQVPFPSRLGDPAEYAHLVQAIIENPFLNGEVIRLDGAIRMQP
T1 sequence (Q7L0Y3 40-403 partner): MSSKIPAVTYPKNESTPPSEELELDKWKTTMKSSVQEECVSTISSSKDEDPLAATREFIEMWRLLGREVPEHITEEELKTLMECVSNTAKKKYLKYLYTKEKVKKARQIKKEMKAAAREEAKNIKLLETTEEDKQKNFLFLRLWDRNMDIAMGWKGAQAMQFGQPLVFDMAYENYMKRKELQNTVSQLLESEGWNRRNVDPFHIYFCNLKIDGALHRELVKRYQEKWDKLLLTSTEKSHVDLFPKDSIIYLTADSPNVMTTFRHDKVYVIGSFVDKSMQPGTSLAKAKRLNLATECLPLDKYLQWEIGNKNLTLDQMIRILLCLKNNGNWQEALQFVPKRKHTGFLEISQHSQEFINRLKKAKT
Assay: RNase P assay, (mt)tRNA^His precursor cleavage
Format: biochemical
Details: freshly dissolved fragments, up to 10 µM; three independent experiments
Excerpt: Samples for analysis were withdrawn at defined intervals or at known linear-range time-points and phosphor imaging data quantitatively analyzed with ImageQuant TL 7 (GE Healthcare).

Row | Substance | effect on tRNA 5′-end processing by mtRNase P
1 | Aβ25–35: synthetic Aβ peptide fragment corresponding to amino acids 25–35 (rPeptide) (GSNKGAIIGLM; Amyloid-beta protein 40; UniProt P05067 696-706, looked up, fragment) | none of the two affected
2 | Aβ1–28: synthetic Aβ peptide fragment, amino acids 1–28 (rPeptide) | none of the two affected
